The koff is the first-order rate constant of dissociation. Read a high koff as fast dissociation.

The values that follow come from article PMC10630626 (2023).

Common to all, as to assay: SPR
(In general: SPR reads the build-up and loss of mass on a sensor chip optically.)

The target of one assay is Palivizumab.
Assay [1] concerns the target Palivizumab single-chain variable fragment, heavy-light order, fused to IgG1 Fc (P^scFvHLFc).
The target in assay [2] is Palivizumab single-chain variable fragment, light-heavy order, fused to IgG1 Fc (P^scFvLHFc).
Sequence of Palivizumab single-chain variable fragment, light-heavy order, fused to IgG1 Fc (P^scFvLHFc) (chain, as listed by the source, chain 1 of 2): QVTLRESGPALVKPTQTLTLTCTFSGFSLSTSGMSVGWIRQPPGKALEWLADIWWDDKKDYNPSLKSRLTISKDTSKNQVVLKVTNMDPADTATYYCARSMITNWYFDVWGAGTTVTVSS
Sequence of Palivizumab single-chain variable fragment, light-heavy order, fused to IgG1 Fc (P^scFvLHFc) (chain, as listed by the source, chain 2 of 2): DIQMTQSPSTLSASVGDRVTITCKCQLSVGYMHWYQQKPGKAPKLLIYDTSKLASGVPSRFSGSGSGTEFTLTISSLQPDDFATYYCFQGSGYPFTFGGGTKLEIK

Sequence of Palivizumab (VH, as listed by the source, chain 1 of 2): as the sequence (chain, as listed by the source, chain 1 of 2) above
Sequence of Palivizumab (VL, as listed by the source, chain 2 of 2): as the sequence (chain, as listed by the source, chain 2 of 2) above
Sequence of Palivizumab single-chain variable fragment, heavy-light order, fused to IgG1 Fc (P^scFvHLFc) (chain, as listed by the source, chain 1 of 2): as the sequence (chain, as listed by the source, chain 1 of 2) above
Sequence of Palivizumab single-chain variable fragment, heavy-light order, fused to IgG1 Fc (P^scFvHLFc) (chain, as listed by the source, chain 2 of 2): as the sequence (chain, as listed by the source, chain 2 of 2) above

B1: anti-idiotypic nanobody for Palivizumab 3 (AIP3^VHH), soluble (VHH)
VHH: DVQLQESGGGLVQPGGSLRLSCVASGRTWSIYAMGWFRQAPGKEREFVTAISISRSESVTHYAESVTGRFTISRDNAKNTLHLQMNSLKPEDTAVYFCAADRRSIDPHHTIDYWGQGTQVTVSS
Molecule B1 yielded a koff with Palivizumab of 0.00308 s⁻¹.

B2: anti-idiotypic nanobody for Palivizumab 2 (AIP2^VHH), soluble (VHH)
VHH: DVQLQESGGGLVQAGGSLRLSCAASESLFRLNAMGWYRQAPGKQRELVAGITTSGDAVYADSVKGRFTISRDSAKNTVYLQTNNLKPEDTAVYYCNVRPRAGTWENARIGVWGQGTQVTVSS
Regarding B2, the koff with Palivizumab was found to be 0.000733 s⁻¹.

B3: anti-idiotypic nanobody for Palivizumab 4 (AIP4^VHH), soluble (VHH)
VHH: DVQLQESGGGLVQAGGSLRLSCVASGRAFSRYDMGWFRQAPGKEREFVAQISWRGGSATSYADTVKGRFTIARDNAKNTVYLQMNSLKPEDTAVYYCNARTPTLSSWGQGTQVTVSS
With B3, in the assay with Palivizumab, the koff stood at 0.0148 s⁻¹.

B4: anti-idiotypic nanobody for Palivizumab 1 (AIP1^VHH), soluble (VHH)
VHH: DVQLQESGGGLVQAGGSLRLSCVASGLTFRYDMGWFRQAPGKEREFVAQITWRGGSATYYADSVKGRFTIARDIAKNAVYLQMNSLKPEDTAVYYCAAAYGSAGYRPDEYDSWGQGTQVTVSS
In the case of B4, the off-rate (koff) in assay [1] worked out at 6.56e-05 s⁻¹; in assay [2] it was 4.2e-05 s⁻¹.
